Patent publication US20090053233A1 (LABORATOIRE FRANCAIS DU FRACTIONNEMENT ET DES …, published 2009)
Numbering of substitutions follows the chain as printed. Values belong to the binder of their own block, whether it stands above or below them.

Tests used:
[1] = molecular target: CD16 (FcγRIIIA) receptor expressed on Jurkat-CD16 cells (human, UniProt P08637 17-208); test: cell-based or functional assay
[2] = molecular target: T1, CD20 antigen expressed on Raji cells (UniProt P11836 1-297, limits assumed); test: flow cytometry competition on Raji cells; competitor CAT-13.6E12 detected with PE anti-mouse IgG
T1 construct: whole, on cells; Raji is a human B cell line
T1 sequence (looked up): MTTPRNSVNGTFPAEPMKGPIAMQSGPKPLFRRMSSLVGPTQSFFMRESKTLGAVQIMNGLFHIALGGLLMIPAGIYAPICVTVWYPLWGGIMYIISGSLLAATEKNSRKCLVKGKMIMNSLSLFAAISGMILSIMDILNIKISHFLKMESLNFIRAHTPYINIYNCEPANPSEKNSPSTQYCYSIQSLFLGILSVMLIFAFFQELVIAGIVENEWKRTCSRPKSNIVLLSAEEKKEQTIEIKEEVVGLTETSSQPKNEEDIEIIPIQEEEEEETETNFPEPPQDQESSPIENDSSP

[3] = molecular target: T1, CD20 antigen expressed on Raji cells; test: specificity study, as for EMAB6 (competition with CAT-13.6E12 on Raji cells); no details given

CD16 (FcγRIIIA) receptor expressed on Jurkat-CD16 cells, sequence (P08637 17-208): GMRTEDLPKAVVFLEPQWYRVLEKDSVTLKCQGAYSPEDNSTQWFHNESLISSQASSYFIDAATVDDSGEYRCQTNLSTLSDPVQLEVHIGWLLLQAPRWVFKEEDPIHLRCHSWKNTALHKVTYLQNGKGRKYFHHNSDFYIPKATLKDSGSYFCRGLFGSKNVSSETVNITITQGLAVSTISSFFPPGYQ

Rituxan® EC50/EMAB6 EC50 ratio, IL-2 secretion by Jurkat-CD16 cells in the presence of Raji cells [1]: ~15 ratio
binding result [2]: binds
B1: anti-CD20 chimeric antibody EMAB6 produced by clone R509 (YB2/0 cell line) (antibody, human IgG1, kappa)
heavy: not shown
light: QIVLSQSPAILSASPGEKVTMTCRASSSVSYMHWYQQKPGSSPKPWIYATSNLASGVPARFSGSGSGTSYSFTISRVEAEDAATYYCQQWTFNPPTFGGGTRLEINRTVAAPSVFIFPPSDEQLKSGTASVVCLLNNFYPREAKVQWKVDNALQSGNSQESVTEQDSKDSTYSLSSTLTLSKADYEKHKVYACEVTHQGLSSPVTKSFNRGEC
notes: Murine-human chimeric IgG1 kappa (murine CAT-13.6E12 variable regions, human gamma1 and kappa constant regions), produced in rat YB2/0 cells, low fucose; The cloned V fragments carry the natural signal peptide; also called chimeric EMAB6 antibody; AMAB6

binding result [3]: binds
B2: anti-CD20 chimeric antibody EMAB603 produced by clone R603 (YB2/0 cell line) (antibody, human IgG1, kappa)
heavy: not shown
light: B1 light with N106K
notes: Murine-human chimeric IgG1 kappa; Produced in rat YB2/0 cells; also called chimeric EMAB603 antibody; EMBA603
